Data: patent publication US20110195027A1
Where “and” joins values, the source holds several entries; their conditions need not be identical. Identical values can stand only once.

How the values were obtained:
Assay in all cases: ELISA: antibody coated, supernatant, anti-His-HRP
[1] = biological target: CD9-ECL2 mutant M1 (human, with rat residues) (UniProt P21926)
[2] = biological target: CD9-ECL2 mutant M4 (human, with rat residues) (UniProt P21926)
[3] = biological target: p-Myc-His CD9-ECL2 wild type (human)
Sequence of p-Myc-His CD9-ECL2 wild type (human) (chain, as listed by the source limits assumed): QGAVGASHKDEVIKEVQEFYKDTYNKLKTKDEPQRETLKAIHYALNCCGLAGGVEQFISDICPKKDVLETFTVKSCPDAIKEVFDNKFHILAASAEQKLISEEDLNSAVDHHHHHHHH

Sequence of CD9-ECL2 mutant M4 (human, with rat residues) (P21926 other isoform, or with tags, fused parts or gaps mutant): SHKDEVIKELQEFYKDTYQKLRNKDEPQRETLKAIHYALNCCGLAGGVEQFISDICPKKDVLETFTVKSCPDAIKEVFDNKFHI
Sequence of CD9-ECL2 mutant M1 (human, with rat residues) (P21926 other isoform, or with tags, fused parts or gaps mutant): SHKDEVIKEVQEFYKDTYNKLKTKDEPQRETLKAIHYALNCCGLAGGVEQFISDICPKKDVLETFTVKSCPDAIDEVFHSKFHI

| OD490 [1] | OD490 [2] | OD490 [3] | Substance |
| --- | --- | --- | --- |
| 0.054 | 0.053 | 0.056 | normal human IgG (antibody) |
| 0.046 and 0.056 | 0.04 and 0.047 | 0.044 and 0.053 | normal mouse IgG (antibody) |
| 0.334 and 0.383 | 0.485 and 0.574 | 0.427 and 0.506 | ALB6 (anti-CD9, Beckman coulter) (antibody) |
